Assay results reported in patent US20020115169A1.

Target: HIV-1 Rev protein (recombinant, expressed in E. coli, refolded) (HIV-1)
Assay: cell-based or functional assay

With “nucleolar protein B23.1 (recombinant, produced in E. coli) (from UniProt P13084 1-292)” as the substance, how does the % inhibition of temperature-dependent Rev aggregation (turbidity at 360 nm, 20 minute time point) versus molar ratio of B23 to Rev (mol B23 per mol Rev) read?
The % inhibition of temperature-dependent Rev aggregation (turbidity at 360 nm, 20 minute time point) versus molar ratio of B23 to Rev (mol B23 per mol Rev) was 1.
